How the values were obtained:
Assay in all cases: cell-based or functional assay
[1] = target: HIV-1 Env of isolate MGRM-D-024 (subtype D) (HIV-1)
[2] = target: HIV-1 Env of pseudovirus isolate MGRM-G-006 (subtype G) (HIV-1)
[3] = target: HIV-1 Env of isolate MGRM-F1-008 (subtype F) (HIV-1)
[4] = target: HIV-1 Env of isolate MGRM-D-013 (subtype D) (HIV-1)
[5] = target: HIV-1 Env of isolate MGRM-D-026 (subtype D) (HIV-1)
[6] = target: HIV-1 Env of isolate MGRM-D-008 (subtype D) (HIV-1)
[7] = target: HIV-1 Env of isolate MGRM-F1-023 (subtype F) (HIV-1)
[8] = target: HIV-1 Env of isolate MGRM-F1-022 (subtype F) (HIV-1)
[9] = target: HIV-1 Env of pseudovirus isolate MGRM-G-015 (subtype G) (HIV-1)
[10] = target: HIV-1 Env of isolate MGRM-F1-017 (subtype F) (HIV-1)
[11] = target: HIV-1 Env of isolate MGRM-D-020 (subtype D) (HIV-1)
[12] = target: HIV-1 Env of isolate MGRM-D-005 (subtype D) (HIV-1)
[13] = target: HIV-1 Env of isolate MGRM-F1-018 (subtype F) (HIV-1)
[14] = target: HIV-1 Env of pseudovirus isolate MGRM-G-016 (subtype G) (HIV-1)
[15] = target: HIV-1 Env of isolate MGRM-D-022 (subtype D) (HIV-1)
[16] = target: HIV-1 Env of isolate MGRM-F1-010 (subtype F) (HIV-1)
[17] = target: HIV-1 Env of isolate MGRM-D-011 (subtype D) (HIV-1)
[18] = target: HIV-1 Env of pseudovirus isolate MGRM-G-024 (subtype G) (HIV-1)
[19] = target: HIV-1 Env of isolate MGRM-D-019 (subtype D) (HIV-1)
[20] = target: HIV-1 Env of isolate MGRM-F1-012 (subtype F) (HIV-1)
[21] = target: HIV-1 Env of isolate MGRM-D-028 (subtype D) (HIV-1)
[22] = target: HIV-1 Env of pseudovirus isolate MGRM-G-004 (subtype G) (HIV-1)
[23] = target: HIV-1 Env of isolate MGRM-F1-014 (subtype F) (HIV-1)
[24] = target: HIV-1 Env of isolate 98CN009 (subtype CRF07_BC) (HIV-1)
[25] = target: HIV-1 Env of isolate MGRM-D-002 (subtype D) (HIV-1)
[26] = target: HIV-1 Env of isolate MGRM-F1-021 (subtype F) (HIV-1)
[27] = target: HIV-1 Env of pseudovirus isolate MGRM-G-017 (subtype G) (HIV-1)
[28] = target: HIV-1 Env of pseudovirus isolate MGRM-G-014 (subtype G) (HIV-1)
[29] = target: HIV-1 Env of isolate 92UG046 (subtype D) (HIV-1)
[30] = target: HIV-1 Env of isolate MGRM-F1-020 (subtype F) (HIV-1)
[31] = target: HIV-1 Env of pseudovirus isolate MGRM-G-011 (subtype G) (HIV-1)
[32] = target: HIV-1 Env of isolate MGRM-D-004 (subtype D) (HIV-1)
[33] = target: HIV-1 Env of isolate 98CN006 (subtype CRF08_BC) (HIV-1)
[34] = target: HIV-1 Env of isolate MGRM-F1-004 (subtype F) (HIV-1)
[35] = target: HIV-1 Env of isolate MGRM-F1-016 (subtype F) (HIV-1)
[36] = target: HIV-1 Env of isolate MGRM-D-029 (subtype D) (HIV-1)
[37] = target: HIV-1 Env of isolate MGRM-D-016 (subtype D) (HIV-1)
[38] = target: HIV-1 Env of pseudovirus isolate MGRM-G-009 (subtype G) (HIV-1)
[39] = target: HIV-1 Env of isolate 92UG114 (subtype D) (HIV-1)
[40] = target: HIV-1 Env of pseudovirus isolate MGRM-G-001 (subtype G) (HIV-1)
[41] = target: HIV-1 Env of isolate MGRM-F1-006 (subtype F) (HIV-1)
[42] = target: HIV-1 Env of pseudovirus isolate MGRM-G-013 (subtype G) (HIV-1)
[43] = target: HIV-1 Env of isolate 92UG024 (subtype D) (HIV-1)
[44] = target: HIV-1 Env of isolate MGRM-F1-015 (subtype F) (HIV-1)
[45] = target: HIV-1 Env of isolate 92UG005 (subtype D) (HIV-1)
[46] = target: HIV-1 Env of pseudovirus isolate MGRM-G-025 (subtype G) (HIV-1)
[47] = target: HIV-1 Env of isolate MGRM-D-012 (subtype D) (HIV-1)
[48] = target: HIV-1 Env of isolate MGRM-D-014 (subtype D) (HIV-1)
[49] = target: HIV-1 Env of pseudovirus isolate MGRM-G-027 (subtype G) (HIV-1)
[50] = target: HIV-1 Env of pseudovirus isolate MGRM-G-019 (subtype G) (HIV-1)
[51] = target: HIV-1 Env of isolate MGRM-D-003 (subtype D) (HIV-1)
[52] = target: HIV-1 Env of isolate MGRM-D-018 (subtype D) (HIV-1)
[53] = target: HIV-1 Env of isolate 92UG001 (subtype D) (HIV-1)
[54] = target: HIV-1 Env of isolate MGRM-D-001 (subtype D) (HIV-1)
[55] = target: HIV-1 Env of pseudovirus isolate MGRM-G-028 (subtype G) (HIV-1)
[56] = target: HIV-1 Env of isolate MGRM-D-021 (subtype D) (HIV-1)
[57] = target: HIV-1 Env of isolate MGRM-F1-013 (subtype F) (HIV-1)
[58] = target: envelope of aMLV pseudovirus (negative control)

B1: PGT-135 (antibody, V domains shown)
VH: QLQMQESGPGLVKPSETLSLSCTVSGDSIRGGEWGDKDYHWGWVRHSAGKGLEWIGSIHWRGTTHYKESLRRRVSMSIDTSRNWFSLRLASVTAADTAVYFCARHRHHDVFMLVPIAGWFDVWGPGVQVTVSS
VL: EIVMTQSPDTLSVSPGETVTLSCRASQNINKNLAWYQYKPGQSPRLVIFETYSKIAAFPARFVASGSGTEFTLTINNMQSEDVAVYYCQQYEEWPRTFGQGTKVDIK
IC50 (neutralization) [1]: > 50 µg/mL | IC50 [2]: > 50 µg/mL | IC50 (neutralization) [3]: > 50 µg/mL | IC50 (neutralization) [4]: > 50 µg/mL | IC50 (neutralization) [5]: > 50 µg/mL | IC50 (neutralization) [6]: > 50 µg/mL | IC50 (neutralization) [7]: 0.088 µg/mL | IC50 (neutralization) [8]: 0.964 µg/mL | IC50 [9]: > 50 µg/mL | IC50 (neutralization) [10]: 7.79 µg/mL | IC50 (neutralization) [11]: > 50 µg/mL | IC50 (neutralization) [12]: > 50 µg/mL | IC50 (neutralization) [13]: > 50 µg/mL | IC50 [14]: > 50 µg/mL | IC50 (neutralization) [15]: > 50 µg/mL | IC50 (neutralization) [16]: > 50 µg/mL | IC50 (neutralization) [17]: 23.5 µg/mL | IC50 [18]: 0.062 µg/mL | IC50 (neutralization) [19]: > 50 µg/mL | IC50 (neutralization) [20]: 0.01 µg/mL | IC50 (neutralization) [21]: > 50 µg/mL | IC50 [22]: > 50 µg/mL | IC50 (neutralization) [23]: > 50 µg/mL | IC50 (neutralization) [24]: 0.071 µg/mL | IC50 (neutralization) [25]: > 50 µg/mL | IC50 (neutralization) [26]: 0.065 µg/mL | IC50 [27]: 0.137 µg/mL | IC50 [28]: > 50 µg/mL | IC50 (neutralization) [29]: > 50 µg/mL | IC50 (neutralization) [30]: 0.168 µg/mL | IC50 [31]: > 50 µg/mL | IC50 (neutralization) [32]: > 50 µg/mL | IC50 (neutralization) [33]: 0.429 µg/mL | IC50 (neutralization) [34]: 0.211 µg/mL | IC50 (neutralization) [35]: > 50 µg/mL | IC50 (neutralization) [36]: 30.8 µg/mL | IC50 (neutralization) [37]: > 50 µg/mL | IC50 [38]: > 50 µg/mL | IC50 (neutralization) [39]: 1.29 µg/mL | IC50 [40]: 0.393 µg/mL | IC50 (neutralization) [41]: > 50 µg/mL | IC50 [42]: > 50 µg/mL | IC50 (neutralization) [43]: 0.01 µg/mL | IC50 (neutralization) [44]: 1.11 µg/mL | IC50 (neutralization) [45]: > 50 µg/mL | IC50 [46]: 0.592 µg/mL | IC50 (neutralization) [47]: > 50 µg/mL | IC50 (neutralization) [48]: 2.21 µg/mL | IC50 [49]: 0.062 µg/mL | IC50 [50]: 0.145 µg/mL | IC50 (neutralization) [51]: > 50 µg/mL | IC50 (neutralization) [52]: 0.039 µg/mL | IC50 (neutralization) [53]: > 50 µg/mL | IC50 (neutralization) [54]: > 50 µg/mL | IC50 [55]: > 50 µg/mL | IC50 (neutralization) [56]: > 50 µg/mL | IC50 (neutralization) [57]: 21.1 µg/mL | IC50 [58]: > 50 µg/mL

B2: PGT-131 (antibody, V domains shown)
VH: QVQLQESGPGLVKPSETLSLTCTVSGDSINTGHHYWGWVRQVPGKGPEWIAHIHYNTAVLHNPALKSRVTISIFTLKNLITLSLSNVTAADTAVYFCVRSGGDILYYIEWQKPHWFYPWGPGILVTVSS
VL: QSALTQPPSASGSLGQSLTISCSGTGSDIGSWNFVSWYQQFPGRAPNLIIFEVNRRRSGVPDRFSGSKSGNTASLTVSGLRSEDEAEYFCSSLSGRWDIVFGGGTKVTVL
IC50 (neutralization) [1]: > 50 µg/mL | IC50 [2]: > 50 µg/mL | IC50 (neutralization) [3]: 2.74 µg/mL | IC50 (neutralization) [4]: 4.14 µg/mL | IC50 (neutralization) [5]: > 50 µg/mL | IC50 (neutralization) [6]: > 50 µg/mL | IC50 (neutralization) [7]: > 50 µg/mL | IC50 (neutralization) [8]: > 50 µg/mL | IC50 [9]: > 50 µg/mL | IC50 (neutralization) [10]: > 50 µg/mL | IC50 (neutralization) [11]: > 50 µg/mL | IC50 (neutralization) [12]: > 50 µg/mL | IC50 (neutralization) [13]: > 50 µg/mL | IC50 [14]: > 50 µg/mL | IC50 (neutralization) [15]: > 50 µg/mL | IC50 (neutralization) [16]: > 50 µg/mL | IC50 (neutralization) [17]: 0.756 µg/mL | IC50 [18]: 10.7 µg/mL | IC50 (neutralization) [19]: > 50 µg/mL | IC50 (neutralization) [20]: > 50 µg/mL | IC50 (neutralization) [21]: > 50 µg/mL | IC50 [22]: > 50 µg/mL | IC50 (neutralization) [23]: > 50 µg/mL | IC50 (neutralization) [24]: 4.05 µg/mL | IC50 (neutralization) [25]: 11.2 µg/mL | IC50 (neutralization) [26]: > 50 µg/mL | IC50 [27]: > 50 µg/mL | IC50 [28]: 4.31 µg/mL | IC50 (neutralization) [29]: > 50 µg/mL | IC50 (neutralization) [30]: > 50 µg/mL | IC50 [31]: > 50 µg/mL | IC50 (neutralization) [32]: 2.01 µg/mL | IC50 (neutralization) [33]: 35.3 µg/mL | IC50 (neutralization) [34]: 0.114 µg/mL | IC50 (neutralization) [35]: > 50 µg/mL | IC50 (neutralization) [36]: > 50 µg/mL | IC50 (neutralization) [37]: > 50 µg/mL | IC50 [38]: > 50 µg/mL | IC50 (neutralization) [39]: > 50 µg/mL | IC50 [40]: 0.404 µg/mL | IC50 (neutralization) [41]: > 50 µg/mL | IC50 [42]: > 50 µg/mL | IC50 (neutralization) [43]: > 50 µg/mL | IC50 (neutralization) [44]: > 50 µg/mL | IC50 (neutralization) [45]: 0.854 µg/mL | IC50 [46]: 7.75 µg/mL | IC50 (neutralization) [47]: > 50 µg/mL | IC50 (neutralization) [48]: 0.516 µg/mL | IC50 [49]: 2.9 µg/mL | IC50 [50]: > 50 µg/mL | IC50 (neutralization) [51]: 19.6 µg/mL | IC50 (neutralization) [52]: 0.148 µg/mL | IC50 (neutralization) [53]: > 50 µg/mL | IC50 (neutralization) [54]: > 50 µg/mL | IC50 [55]: 0.466 µg/mL | IC50 (neutralization) [56]: 0.106 µg/mL | IC50 (neutralization) [57]: > 50 µg/mL | IC50 [58]: > 50 µg/mL

Source: patent US20160264649A1
